Results from patent US20180057604A1 (Genentech, published 2018).
Numbering of substitutions follows the chain as printed. Numbers in names are those of the source.

T1: cyno TfR extracellular domain (analogous construct to human TfR ecd) (cynomolgus monkey, UniProt Q5RDH6 87-760 (Pongo abelii entry))
T1 construct: also called cynoTfR ecd
T1 chain: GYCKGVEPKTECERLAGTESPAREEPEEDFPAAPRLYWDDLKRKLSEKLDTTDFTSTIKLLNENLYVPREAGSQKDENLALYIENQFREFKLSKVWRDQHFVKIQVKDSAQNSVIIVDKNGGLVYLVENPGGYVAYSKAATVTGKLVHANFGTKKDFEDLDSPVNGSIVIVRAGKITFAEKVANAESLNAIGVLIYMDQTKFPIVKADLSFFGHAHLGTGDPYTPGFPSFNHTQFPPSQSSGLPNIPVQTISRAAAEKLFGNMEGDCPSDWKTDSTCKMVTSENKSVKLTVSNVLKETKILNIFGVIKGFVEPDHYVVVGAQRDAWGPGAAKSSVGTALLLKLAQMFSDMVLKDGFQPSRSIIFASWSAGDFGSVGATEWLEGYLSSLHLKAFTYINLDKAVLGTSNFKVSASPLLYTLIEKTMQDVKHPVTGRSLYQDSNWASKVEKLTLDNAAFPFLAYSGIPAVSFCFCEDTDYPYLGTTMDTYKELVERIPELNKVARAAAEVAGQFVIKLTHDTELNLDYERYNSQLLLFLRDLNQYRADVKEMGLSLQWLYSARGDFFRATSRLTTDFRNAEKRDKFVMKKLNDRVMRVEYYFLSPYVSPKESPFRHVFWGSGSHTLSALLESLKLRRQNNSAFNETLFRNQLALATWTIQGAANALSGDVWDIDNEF

B1: D101A (antibody, V domains shown)
VH: EVQLVQSGAEVKKPGASVKVSCKGSGYTFTDYAMHWVRQAPGQGLEWMGGISTYFGRTNYNQKFKGRVTMTVDTSISTAYMELSRLRSDDTAVYYCARGLSGNYVMAYWGQGTTVTVSS
VL: DIVMTQSPDSLAVSLGERATINCRASESVDSYGNSFMHWYQQKPGQPPKLLIYRASNLESGVPDRFSGSGSRTDFTLTISSLQAEDVAVYYCQQSNEAPPTFGQGTKLEIK
notes: also called 7A4.v15 D101A (CDR-H3) IgG; copies: 2 + 2
B2: E93A (antibody, V domains shown)
VH: B1 VH with A107D
VL: B1 VL with E97A
notes: also called 7A4.v15 E93A (CDR-L3) IgG
B3: P96A (antibody, V domains shown)
VH: B1 VH with A107D
VL: B1 VL with P100A
notes: also called 7A4.v15 P96A (CDR-L3) IgG
B4: Y100A (antibody, V domains shown)
VH: B1 VH with Y104A, A107D
VL: B1 VL
notes: also called 7A4.v15 Y100A (CDR-H3) IgG; copies: 2 + 2
B5: G95A (antibody, V domains shown)
VH: B1 VH with G99A, A107D
VL: B1 VL
notes: also called 7A4.v15 G95A (CDR-H3) IgG; copies: 2 + 2
B6: Q89A (antibody, V domains shown)
VH: B1 VH with A107D
VL: B1 VL with Q93A
notes: also called 7A4.v15 Q89A (CDR-L3) IgG
B7: P95A (antibody, V domains shown)
VH: B1 VH with A107D
VL: B1 VL with P99A
notes: also called 7A4.v15 P95A (CDR-L3) IgG
B8: S91A (antibody, V domains shown)
VH: B1 VH with A107D
VL: B1 VL with S95A
notes: also called 7A4.v15 S91A (CDR-L3) IgG
B9: M100bA (antibody, V domains shown)
VH: B1 VH with M106A, A107D
VL: B1 VL
notes: also called 7A4.v15 M100bA (CDR-H3) IgG; copies: 2 + 2
B10: G98A (antibody, V domains shown)
VH: B1 VH with G102A, A107D
VL: B1 VL
notes: also called 7A4.v15 G98A (CDR-H3) IgG; copies: 2 + 2
B11: T97A (antibody, V domains shown)
VH: B1 VH with A107D
VL: B1 VL with T101A
notes: also called 7A4.v15 T97A (CDR-L3) IgG
B12: N92A (antibody, V domains shown)
VH: B1 VH with A107D
VL: B1 VL with N96A
notes: also called 7A4.v15 N92A (CDR-L3) IgG
B13: L96A (antibody, V domains shown)
VH: B1 VH with L100A, A107D
VL: B1 VL
notes: also called 7A4.v15 L96A (CDR-H3) IgG; copies: 2 + 2
B14: Y102A (antibody, V domains shown)
VH: B1 VH with A107D, Y108A
VL: B1 VL
notes: also called 7A4.v15 Y102A (CDR-H3) IgG; copies: 2 + 2
B15: 5983 (antibody, V domains shown)
VH: QLQLQESGPGLVKPSETLSLTCTVSGGSISSSSYYWGWIRQPPGKGLEWIGNIYYSGSTYYNPSLRSRVTISVDTSKNQFFLKLSSVTAADTAVYYCARLGHGYNYFDLWGRGTLVTVSS
VL: EIVLTQSPATLSLSPGERATLSCRASQSVSSYLAWFQQKPGQAPRLLIYDASNRATGIPARFSGSGSGTDFTLTISSLEPEDFAVYYCQQVYVWPPRTFGGGTKVEIK
notes: anti-BACE1 IgG

Target: T2, human TfR extracellular domain with N-terminal His tag (human, UniProt P02786 89-760)
T2 construct: Biotinylated in some assays; also called huTfR; HuTfR
T2 sequence (P02786 89-760 G142S): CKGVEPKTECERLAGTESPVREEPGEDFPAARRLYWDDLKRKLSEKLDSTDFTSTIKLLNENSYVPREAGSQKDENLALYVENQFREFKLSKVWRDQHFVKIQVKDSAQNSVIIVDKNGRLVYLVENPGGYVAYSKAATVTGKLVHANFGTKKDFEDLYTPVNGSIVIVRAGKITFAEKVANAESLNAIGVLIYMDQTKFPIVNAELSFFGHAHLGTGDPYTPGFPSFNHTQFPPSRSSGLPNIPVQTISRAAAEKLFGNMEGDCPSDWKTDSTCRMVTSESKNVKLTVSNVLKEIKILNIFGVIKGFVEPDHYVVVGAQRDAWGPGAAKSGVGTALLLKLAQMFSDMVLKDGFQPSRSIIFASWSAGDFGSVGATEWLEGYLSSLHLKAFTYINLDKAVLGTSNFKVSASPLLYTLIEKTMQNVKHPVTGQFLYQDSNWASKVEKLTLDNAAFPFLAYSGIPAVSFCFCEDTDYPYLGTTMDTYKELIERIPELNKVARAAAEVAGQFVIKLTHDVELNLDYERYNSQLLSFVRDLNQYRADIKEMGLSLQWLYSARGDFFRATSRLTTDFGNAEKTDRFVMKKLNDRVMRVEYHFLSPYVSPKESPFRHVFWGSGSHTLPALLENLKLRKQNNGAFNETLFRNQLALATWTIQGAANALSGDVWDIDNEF
Experiment: ELISA, IgG;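 note: ELISA of IgG-containing supernatants tested in 1:5 serial dilutions for 1 h, bound antibody read out with HRP anti-kappa antibody and TMB substrate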
Experimental: (§1) Affinity variants were generated by making individual alanine substitutions in CDR-L3 or CDR-H3 using standard techniques. These variants were screened as IgG by ELISA and SPR to identify positions important for binding to human and cyno TfR; the monovalent affinity of selected variants as Fab was also determined. […] Plates were washed with PBS/0.05% Tween 20 and blocked using Superblock blocking buffer in PBS (Thermo Scientific, Hudson, N.H.). Supernatants containing expressed IgG were diluted serially 1:5 and added to the plate for 1 h. […] Plates were washed with PBS/0.05% Tween 20 and 1:1000 diluted HRP-Goat-anti kappa (Southern Biotech) was added the plate and incubated for 1 h at room temperature. Plates were washed with PBS/0.05% Tween 20 and detected using TMB substrate (BioFX Laboratories, Owings Mills).

| EC50 | Binder |
| --- | --- |
| 0.0173 µg/mL | B1 |
| 0.0122 µg/mL | B2 |
| 0.01 µg/mL | B3 |
| 0.0159 µg/mL | B4 |
| 0.0135 µg/mL | B5 |
| 0.0109 µg/mL | B6 |
| 0.0097 µg/mL | B7 |
| 0.0113 µg/mL | B8 |
| 0.0161 µg/mL | B9 |
| 0.0194 µg/mL | B10 |
| 0.012 µg/mL | B11 |
| 0.0087 µg/mL | B12 |
| 0.0155 µg/mL | B13 |
| 0.0126 µg/mL | B14 |

Target: T1, cyno TfR extracellular domain …
Experiment: ELISA, IgG;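 note: ELISA of IgG-containing supernatants tested in 1:5 serial dilutions for 1 h, bound antibody read out with HRP anti-kappa antibody and TMB substrate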
Experimental: as §1

| EC50 | Binder |
| --- | --- |
| 0.0185 µg/mL | B1 |
| 0.0176 µg/mL | B2 |
| 0.0162 µg/mL | B3 |
| 0.024 µg/mL | B4 |
| 0.0418 µg/mL | B5 |
| 0.0138 µg/mL | B6 |
| 0.0159 µg/mL | B7 |
| 0.0163 µg/mL | B8 |
| 0.0169 µg/mL | B9 |
| 0.0247 µg/mL | B10 |
| 0.0226 µg/mL | B11 |
| 0.0137 µg/mL | B12 |
| 0.0287 µg/mL | B13 |
| 0.0178 µg/mL | B14 |

Target: T3, human BACE1 ECD
T3 construct: analyte of the Octet assay (200 nM) and enzyme of the first short substrate assay; also called human BACE1 extracellular domain
T3 sequence (single chain, as listed by the source limits assumed): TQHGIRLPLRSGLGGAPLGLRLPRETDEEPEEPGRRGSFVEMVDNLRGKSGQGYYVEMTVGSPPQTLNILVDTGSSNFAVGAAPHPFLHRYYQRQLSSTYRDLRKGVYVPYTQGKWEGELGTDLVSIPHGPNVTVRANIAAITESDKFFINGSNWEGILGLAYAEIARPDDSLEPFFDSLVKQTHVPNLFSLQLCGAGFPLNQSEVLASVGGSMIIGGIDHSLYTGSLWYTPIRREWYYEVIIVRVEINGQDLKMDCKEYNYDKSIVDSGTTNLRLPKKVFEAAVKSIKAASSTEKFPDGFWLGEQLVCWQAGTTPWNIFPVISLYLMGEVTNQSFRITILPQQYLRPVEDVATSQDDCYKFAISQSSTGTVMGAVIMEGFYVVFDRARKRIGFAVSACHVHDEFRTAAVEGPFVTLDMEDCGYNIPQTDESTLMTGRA
Experiment: Octet, pH 5.0;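 note: antibodies captured on anti-human capture sensor tips, dissociation monitored in PBS with BSA buffer, kinetics fitted with a one-to-one binding model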
Experimental: (§2) Anti-BACE1 antibodies were loaded onto anti-human capture (AHC) sensors (tips) followed by 60 seconds baseline in assay buffer. […] Tips were transferred to assay buffer for 5 minutes, 30 minutes, or 120 minutes depending on the off-rate, for off-rate measurement. Assay buffer was either PBS+0.1% BSA, pH 7.5; or PBS+0.1% BSA, pH 5.0. Kinetics were analyzed using a 1:1 binding model.

| Kd | Binder |
| --- | --- |
| 340 pM | B15 |

Target: T3, human BACE1 ECD
Experiment: Octet, pH 7.5;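 note: antibodies captured on anti-human capture biosensor tips, dissociation followed in PBS with BSA buffer, kinetics fitted with a one-to-one binding model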
Experimental: as §2

| Kd | Binder |
| --- | --- |
| 350 pM | B15 |

Target: T4, murine BACE1 ECD
T4 construct: analyte of the Octet assay (200 nM) and enzyme of the first short substrate assay
T4 sequence (single chain, as listed by the source limits assumed): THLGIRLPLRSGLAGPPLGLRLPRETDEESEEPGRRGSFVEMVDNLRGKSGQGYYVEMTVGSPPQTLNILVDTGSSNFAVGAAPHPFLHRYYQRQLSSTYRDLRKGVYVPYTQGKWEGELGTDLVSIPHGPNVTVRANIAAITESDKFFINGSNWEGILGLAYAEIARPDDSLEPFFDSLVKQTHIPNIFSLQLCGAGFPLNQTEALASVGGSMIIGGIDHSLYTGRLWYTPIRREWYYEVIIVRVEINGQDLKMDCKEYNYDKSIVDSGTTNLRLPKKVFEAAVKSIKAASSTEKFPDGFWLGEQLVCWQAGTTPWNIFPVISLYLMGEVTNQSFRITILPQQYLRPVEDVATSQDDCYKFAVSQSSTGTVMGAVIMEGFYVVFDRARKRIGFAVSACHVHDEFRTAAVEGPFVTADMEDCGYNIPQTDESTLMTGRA
Experiment: Octet, pH 7.5;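 note: antibodies captured on anti-human capture biosensor tips, dissociation followed in PBS with BSA buffer, kinetics fitted with a one-to-one binding model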
Experimental: as §2

| Kd | Binder |
| --- | --- |
| < 240 pM | B15 |

Target: BACE1 in primary mouse cortical neurons (mouse, UniProt P56818 46-501)
Sequence (P56818 46-501): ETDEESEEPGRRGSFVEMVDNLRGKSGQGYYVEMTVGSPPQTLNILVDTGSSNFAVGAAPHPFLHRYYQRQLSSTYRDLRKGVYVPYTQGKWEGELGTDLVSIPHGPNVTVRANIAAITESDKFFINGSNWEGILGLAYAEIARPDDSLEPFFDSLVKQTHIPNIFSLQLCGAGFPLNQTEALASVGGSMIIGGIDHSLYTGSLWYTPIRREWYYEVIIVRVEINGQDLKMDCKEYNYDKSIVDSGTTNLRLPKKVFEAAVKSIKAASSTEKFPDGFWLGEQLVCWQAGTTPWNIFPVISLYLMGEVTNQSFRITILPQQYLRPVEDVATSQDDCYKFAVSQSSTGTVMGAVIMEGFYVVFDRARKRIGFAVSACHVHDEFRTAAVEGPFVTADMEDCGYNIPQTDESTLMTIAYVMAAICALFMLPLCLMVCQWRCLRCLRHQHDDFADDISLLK
Experiment: cell-based or functional assay

| IC50, Abeta x-40 in mouse cortical neurons | maximal % inhibition of Abeta x-40 | Binder |
| --- | --- | --- |
| 7340 pM | 72% | B15 |
